± gives the standard deviation of the averaged measurements.

The nature of this series: total protein half-life in vivo (active degradation + dilution); higher = more stable protein.
Where [1] appears, read: E. coli NCM3722 delta-clpP delta-lon delta-hslV, growth: N-lim chemostat, doubling time 6 h.
[2] abbreviates: E. coli NCM3722 delta-clpP, growth: N-lim chemostat, doubling time 6 h.
The mark [3] stands for this setting: E. coli NCM3722 delta-hslV, growth: N-lim chemostat, doubling time 6 h.
The mark [4] stands for this setting: E. coli NCM3722 delta-lon, growth: N-lim chemostat, doubling time 6 h.
Setting [5] is: E. coli NCM3722 delta-smpB, growth: N-lim chemostat, doubling time 6 h.
The mark [6] stands for this setting: wild type E. coli NCM3722, growth: C-lim chemostat, doubling time 3 h.
Where [7] appears, read: wild type E. coli NCM3722, growth: C-lim chemostat, doubling time 6 h.
Setting [8] is: wild type E. coli NCM3722, growth: C-lim chemostat, doubling time 12 h.
Setting [9] is: wild type E. coli NCM3722, growth: N-lim chemostat, doubling time 6 h.
Setting [10] is: wild type E. coli NCM3722, growth: N-lim chemostat, doubling time 12 h.
The mark [11] stands for this setting: wild type E. coli NCM3722, growth: P-lim chemostat, doubling time 6 h.
The mark [12] stands for this setting: wild type E. coli NCM3722, growth: P-lim chemostat, doubling time 12 h.

On to “MGKEVMGKKENEMAQEKERPAGSQSLFRGLMLIEILSNYPNGCPLAHLSELAGLNKSTVHRLLQGLQSCGYVTTAPAAGSYRLTTKFIAVGQKALSSLNIIHIAAPHLEALNIATGETINFSSREDDHAILIYKLEPTTGMLRTRAYIGQHMPLYCSAMGKIYMAFGHPDYVKSYWESHQHEIQPLTRNTITELPAMFDELAHIRESGAAMDREENELGVSCIAVPVFDIHGRVPYAVSISLSTSRLKQVGEKNLLKPLRETAQAISNELGFTVRDDLGAIT”, for which the “total protein half-life in vivo” value is, setting by setting: under setting [1], 6.16 ± 0.066 h; under setting [2], 6.38 ± 0.83 h; under setting [3], 5.57 ± 0.36 h; under setting [4], 5.84 ± 0.19 h; under setting [5], 5.29 ± 0.3 h; under setting [6], 2.91 ± 0.036 h. For the same sequence, the “total protein half-life in vivo” value came out at 6.07 ± 0.19 h under setting [7]; 12.6 ± 1.2 h under setting [8]; 5.86 ± 0.21 h under setting [9]; 9.57 ± 0.79 h under setting [10]; 6.38 ± 1.8 h under setting [11]; 11.2 ± 2.3 h under setting [12].

Take “MFNEVHSIHGHTLLLITKSSLQATALLQHLKQSLAITGKLHNIQRSLDDISSGSIILLDMMEADKKLIHYWQDTLSRKNNNIKILLLNTPEDYPYRDIENWPHINGVFYSMEDQERVVNGLQGVLRGECYFTQKLASYLITHSGNYRYNSTESALLTHREKEILNKLRIGASNNEIARSLFISENTVKTHLYNLFKKIAVKNRTQAVSWANDNLRR”: the “total protein half-life in vivo” value under setting [2] came to 1.72 ± 0.18 h; the “total protein half-life in vivo” value under setting [3] amounted to 0.584 h; the “total protein half-life in vivo” value under setting [5] worked out at 0.772 h; the “total protein half-life in vivo” value under setting [9] is 0.875 h; the “total protein half-life in vivo” value under setting [10] stood at 1.84 h; the “total protein half-life in vivo” value under setting [12] turned out to be 1.48 ± 0.36 h.

In the case of “MERNVTLDFVRGVAILGILLLNISAFGLPKAAYLNPAWYGAITPRDAWTWAFLDLIGQVKFLTLFALLFGAGLQMLLPRGRRWIQSRLTLLVLLGFIHGLLFWDGDILLAYGLVGLICWRLVRDAPSVKSLFNTGVMLYLVGLGVLLLLGLISDSQTSRAWTPDASAILYEKYWKLHGGVEAISNRADGVGNSLLALGAQYGWQLAGMMLIGAALMRSGWLKGQFSLRHYRRTGFVLVAIGVTINLPAIALQWQLDWAYRWCAFLLQMPRELSAPFQAIGYASLFYGFWPQLSRFKLVLAIACVGRMALTNYLLQTLICTTLFYHLGLFMHFDRLELLAFVIPVWLANILFSVIWLRYFRQGPVEWLWRQLTLRAAGPAISKTSR”, the “total protein half-life in vivo” value was determined as 5.73 ± 0.069 h under setting [2]; 5.75 ± 1.1 h under setting [3]; 6.13 ± 0.32 h under setting [4]; 5.67 ± 0.66 h under setting [5]; 6.471 ± 0.017 h under setting [7]; 10.3 ± 1.2 h under setting [8]. Further, the “total protein half-life in vivo” value reads like this: under setting [9], 6.72 ± 0.74 h; under setting [10], 7.45 ± 4 h; under setting [11], 5.19 ± 0.44 h; under setting [12], 11.6 ± 0.22 h.

For “MTAELLVNVTPSETRVAYIDGGILQEIHIEREARRGIVGNIYKGRVSRVLPGMQAAFVDIGLDKAAFLHASDIMPHTECVAGEEQKQFTVRDISELVRQGQDLMVQVVKDPLGTKGARLTTDITLPSRYLVFMPGASHVGVSQRIESESERERLKKVVAEYCDEQGGFIIRTAAEGVGEAELASDAAYLKRVWTKVMERKKRPQTRYQLYGELALAQRVLRDFADAELDRIRVDSRLTYEALLEFTSEYIPEMTSKLEHYTGRQPIFDLFDVENEIQRALERKVELKSGGYLIIDQTEAMTTVDINTGAFVGHRNLDDTIFNTNIEATQAIARQLRLRNLGGIIIIDFIDMNNEDHRRRVLHSLEQALSKDRVKTSVNGFSALGLVEMTRKRTRESIEHVLCNECPTCHGRGTVKTVETVCYEIMREIVRVHHAYDSDRFLVYASPAVAEALKGEESHSLAEVEIFVGKQVKVQIEPLYNQEQFDVVMM [P0A9J0]”, the “total protein half-life in vivo” value under setting [1] was found to be 3.85 ± 0.3 h; the “total protein half-life in vivo” value under setting [2] worked out at 2.58 ± 0.087 h; the “total protein half-life in vivo” value under setting [3] stood at 3.04 ± 0.55 h; the “total protein half-life in vivo” value under setting [4] was determined as 3.28 ± 0.38 h; the “total protein half-life in vivo” value under setting [5] was found to be 2.62 ± 0.21 h; the “total protein half-life in vivo” value under setting [6] stood at 3.09 ± 0.69 h. The “total protein half-life in vivo” value under setting [7] was found to be 4.36 ± 0.16 h; the “total protein half-life in vivo” value under setting [8] worked out at 8.57 ± 0.57 h; the “total protein half-life in vivo” value under setting [9] came out at 2.6 ± 0.14 h; the “total protein half-life in vivo” value under setting [10] worked out at 3.45 ± 0.073 h; the “total protein half-life in vivo” value under setting [11] was determined as 5.69 ± 0.42 h; the “total protein half-life in vivo” value under setting [12] was 10.35 ± 0.087 h.

Consider “MSKKLIALCACPMGLAHTFMAAQALEEAAVEAGYEVKIETQGADGIQNRLTAQDIAEATIIIHSVAVTPEDNERFESRDVYEITLQDAIKNAAGIIKEIEEMIASEQQ”, for which the “total protein half-life in vivo” value is, setting by setting: under setting [1], 4.54 ± 0.89 h; under setting [6], 2.27 ± 0.1 h; under setting [7], 4.02 ± 0.38 h; under setting [8], 5.83 ± 0.31 h.

With “MLIPSKLSRPVRLDHTVVRERLLAKLSGANNFRLALITSPAGYGKTTLISQWAAGKNDIGWYSLDEGDNQQERFASYLIAAVQQATNGHCAICETMAQKRQYASLTSLFAQLFIELAEWHSPLYLVIDDYHLITNPVIHESMRFFIRHQPENLTLVVLSRNLPQLGIANLRVRDQLLEIGSQQLAFTHQEAKQFFDCRLSSPIEAAESSRICDDVSGWATALQLIALSARQNTHSAHKSARRLAGINASHLSDYLVDEVLDNVDLATRHFLLKSAILRSMNDALITRVTGEENGQMRLEEIERQGLFLQRMDDTGEWFCYHPLFGNFLRQRCQWELAAELPEIHRAAAESWMAQGFPSEAIHHALAAGDALMLRDILLNHAWSLFNHSELSLLEESLKALPWDSLLENPQLVLLQAWLMQSQHRYGEVNTLLARAEHEIKDIREDTMHAEFNALRAQVAINDGNPDEAERLAKLALEELPPGWFYSRIVATSVLGEVLHCKGELTRSLALMQQTEQMARQHDVWHYALWSLIQQSEILFAQGFLQTAWETQEKAFQLINEQHLEQLPMHEFLVRIRAQLLWAWARLDEAEASARSGIEVLSSYQPQQQLQCLAMLIQCSLARGDLDNARSQLNRLENLLGNGKYHSDWISNANKVRVIYWQMTGDKAAAANWLRHTAKPEFANNHFLQGQWRNIARAQILLGEFEPAEIVLEELNENARSLRLMSDLNRNLLLLNQLYWQAGRKSDAQRVLLDALKLANRTGFISHFVIEGEAMAQQLRQLIQLNTLPELEQHRAQRILREINQHHRHKFAHFDENFVERLLNHPEVPELIRTSPLTQREWQVLGLIYSGYSNEQIAGELEVAATTIKTHIRNLYQKLGVAHRQDAVQHAQQLLKMMGYGV”, the “total protein half-life in vivo” value reads like this: under setting [1], 6.02 ± 0.46 h; under setting [3], 0.718 h; under setting [5], 0.786 h; under setting [6], 0.61 ± 0.1 h; under setting [7], 1.05 ± 0.094 h; under setting [8], 1.38 ± 0.18 h. The “total protein half-life in vivo” value runs as follows: under setting [10], 0.803 h; under setting [12], 1.36 h.

Turning to “MAKVLVLYYSMYGHIETMARAVAEGASKVDGAEVVVKRVPETMPPQLFEKAGGKTQTAPVATPQELADYDAIIFGTPTRFGNMSGQMRTFLDQTGGLWASGALYGKLASVFSSTGTGGGQEQTITSTWTTLAHHGMVIVPIGYAAQELFDVSQVRGGTPYGATTIAGGDGSRQPSQEELSIARYQGEYVAGLAVKLNG [P0A8G6]”, the “total protein half-life in vivo” value under setting [1] is 5.48 ± 0.11 h; the “total protein half-life in vivo” value under setting [2] is 5.53 ± 0.88 h; the “total protein half-life in vivo” value under setting [3] amounted to 5.48 ± 0.15 h; the “total protein half-life in vivo” value under setting [4] worked out at 5.7 ± 0.49 h; the “total protein half-life in vivo” value under setting [5] stood at 4.89 ± 0.052 h; the “total protein half-life in vivo” value under setting [6] was 3.227 ± 0.018 h. Further, the “total protein half-life in vivo” value under setting [7] was found to be 5.98 ± 0.084 h; the “total protein half-life in vivo” value under setting [8] is 11.1 ± 1.1 h; the “total protein half-life in vivo” value under setting [9] came to 5.31 ± 0.38 h; the “total protein half-life in vivo” value under setting [10] was 9.99 ± 1.1 h; the “total protein half-life in vivo” value under setting [11] was 5.69 ± 0.29 h; the “total protein half-life in vivo” value under setting [12] amounted to 11.7 ± 0.32 h.
